Target: Alexa-647 NHS-labelled tubulin (UniProt P02550)
Test: MST

Sequence of Alexa-647 NHS-labelled tubulin (P02550 whole entry, looked up): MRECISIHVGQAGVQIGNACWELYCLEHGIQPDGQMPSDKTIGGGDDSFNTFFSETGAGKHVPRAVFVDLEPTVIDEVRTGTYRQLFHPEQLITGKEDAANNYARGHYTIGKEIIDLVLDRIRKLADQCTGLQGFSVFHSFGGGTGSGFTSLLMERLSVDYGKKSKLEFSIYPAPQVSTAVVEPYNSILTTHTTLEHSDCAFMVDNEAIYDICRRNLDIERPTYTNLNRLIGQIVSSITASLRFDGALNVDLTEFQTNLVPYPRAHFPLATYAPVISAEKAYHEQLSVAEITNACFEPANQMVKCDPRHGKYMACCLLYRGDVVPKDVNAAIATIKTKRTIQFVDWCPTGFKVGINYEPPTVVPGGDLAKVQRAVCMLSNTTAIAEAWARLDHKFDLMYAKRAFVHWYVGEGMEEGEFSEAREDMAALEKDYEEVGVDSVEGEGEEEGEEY

- Kd: 690 nM
Substance: recombinant HYC2 (GST-HYC2 or HYC2-6XHis) (from UniProt Q9FMI8 1-448) (natural protein)

From article doi:10.1101/2024.09.06.611148
